No end group written: not given here.
Tests used:
[1] = Clearance of IV-injected I-Aβ from serum; type: in vivo, CD-1 mice; details: linear regression, n = 7–10 per group
Protocol: All animal protocols were performed in an Association for Assessment and Accreditation of Laboratory Animal Care accredited facility and approved by the animal committee of the VA and St Louis University Medical Centers. Male CD-1 mice were purchased from Charles River and kept on a 12/12 hour light/dark cycle with food and water freely available. Mice at 6–8 weeks of age were treated with 3 intraperitoneal (IP) injections of 3 mg/kg LPS from Salmonella typhimurium (Sigma, St. Louis, MO, USA) dissolved in sterile normal saline over a 24-hour period as previously described. […]
In BSA/lactated Ringer’s solution 3 × 10^5 CPM of ^131I-Aβ and ^125I-albumin were prepared and injected together into the jugular vein of mice treated with LPS or saline. […] Blood was allowed to clot, spun at 5,000 g to separate serum from blood cells, and 50 μl serum was counted along with harvested tissues from liver and kidney in a gamma counter. The rate of I-Aβ tissue uptake was determined using multiple-time regression analysis. For this analysis, experimental clock time was re-expressed as exposure time to correct for clearance of I-Aβ from the blood. Exposure time was calculated from the formula: […]
Serum clearance was calculated by plotting the log serum CPM/50 μl versus experimental clock time. […]

[2] = Aβ uptake by liver and kidney, multiple-time regression analysis; type: in vivo, CD-1 mice; details: IV, mean ± SEM, n = 7–10 per group
Protocol: All animal protocols were performed in an Association for Assessment and Accreditation of Laboratory Animal Care accredited facility and approved by the animal committee of the VA and St Louis University Medical Centers. Male CD-1 mice were purchased from Charles River and kept on a 12/12 hour light/dark cycle with food and water freely available. Mice at 6–8 weeks of age were treated with 3 intraperitoneal (IP) injections of 3 mg/kg LPS from Salmonella typhimurium (Sigma, St. Louis, MO, USA) dissolved in sterile normal saline over a 24-hour period as previously described. Briefly, the first injection was given in the morning, and the second and third injections were given at 6 and 24 hours following the first injection, respectively. All mice were studied at 28 hours following the first injection. […] No mice died as a result of this treatment regimen. A total of 225 mice were used in this study: 90 were used for detection of oxidative modifications to LRP-1 and Pgp measurement, 30 for LRP-1 measurement, 44 for measurement of Aβ and a2M vascular sequestration, 20 for CSF bulk flow measurement, 21 for measurement of peripheral Aβ clearance, and 20 for primary endothelial cell culture.
In BSA/lactated Ringer’s solution 3 × 10^5 CPM of ^131I-Aβ and ^125I-albumin were prepared and injected together into the jugular vein of mice treated with LPS or saline. The liver, the left kidney, and blood from the carotid artery were collected at 1, 2, 5, 10, and 20 minutes. Blood was allowed to clot, spun at 5,000 g to separate serum from blood cells, and 50 μl serum was counted along with harvested tissues from liver and kidney in a gamma counter. The rate of I-Aβ tissue uptake was determined using multiple-time regression analysis. For this analysis, experimental clock time was re-expressed as exposure time to correct for clearance of I-Aβ from the blood. Exposure time was calculated from the formula:
(5) Exposuretime=∫0tCpttdt/Cpt
where t equals experimental clock time, Cp represents the level of radioactivity in the serum over time and Cpt is the level of radioactivity in the serum at time t. Tissue/serum ratios were then calculated from the following formula:
(6) Tissue/serumratio=serumvolumetissueCPM/tissueweightserumCPM
To correct for alterations in vascular space and/or vascular permeability which occur with LPS administration, tissue/serum ratios for I-albumin were subtracted from those for I-Aβ. The corrected tissue/serum ratios were plotted against exposure time calculated for Aβ, and the unidirectional influx constant determined from the slope of the linear portion of the curve.

murine BBB = details: compared with human Aβ1-42; cited from earlier work
Description: In this study we have shown that peripheral administration of LPS inhibits CSF bulk flow, central and peripheral clearance of Aβ, and increases vascular sequestration of Aβ. […] Al ...

[3] = LPS-treated mice (3 x 3 mg/kg IP, studied at 28 h), corrected for I-albumin

| Substance | half-life in serum ([1]; LPS-treated mice (3 x 3 mg/kg IP at 0, 6, 24 h, studied at 28 h), IV injection, serum at 1-20 min) [min] | half-life in serum ([1]; saline-treated mice, IV (jugular vein) injection, serum at 1, 2, 5, 10, 20 min, log serum CPM/50 μl vs time) [min] | unidirectional influx rate of Aβ into kidney (Ki) [2, 3] [µL/g/min] | unidirectional influx rate of Aβ into liver (Ki) [2, 3] [µL/g/min] | unidirectional influx rate of Aβ into kidney (Ki) ([2]; saline-treated mice, corrected for I-albumin) [µL/g/min] | unidirectional influx rate of Aβ into liver (Ki) ([2]; saline-treated mice, tissue/serum ratio corrected for I-albumin vs exposure time) [µL/g/min] | rate of clearance across the murine BBB (murine BBB) |
| --- | --- | --- | --- | --- | --- | --- | --- |
| I-Aβ: Murine Aβ1-42 (Bachem) radioactively labeled with 125I or 131I by the chloramine-T method (DAEFGHDSGFEVRHQKLVFFAEDVGSNKGAIIGLMVGGVVIA; also: 125I or 131I radiolabel, residue not given here; UniProt P12023 672-713, looked up) | 8.4 | 4 | 0.5608 ± 3.859 | 8.356 ± 6.433 | 41.26 ± 10.46 | 34.67 ± 3.444 | – |
| murine Aβ1-42: Murine amyloid beta 1-42 purchased from Bachem (DAEFGHDSGFEVRHQKLVFFAEDVGSNKGAIIGLMVGGVVIA; Amyloid-beta protein 42; UniProt P12023 672-713, looked up) | – | – | – | – | – | – | cleared at a faster rate across the murine BBB than human Aβ1-42 |

Reference: paper PMC3410805, “Lipopolysaccharide impairs amyloid beta efflux from brain: altered vascular sequestration, cerebrospinal fluid reabsorption, peripheral clearance and transporter function at the blood–brain barrier” (Journal of Neuroinflammation, 2012)
